Laboratory results published in US20080044436A1, “Method for Screening and Compositions for Treating Cancers” (priority 2004, published 2008).

Test system: HeLa cells
Assay: Doubling time of reseeded HeLa colonies expressing exogenous TReP-132
Type: cell-based, human
Details: HeLa cells expressing TReP-132; control pcDNA3 cells 18 hours
Description: HeLa cells were seeded in 12-well plates at an initial density of 100,000 cells per well, incubated for 24 hours, then transfected with each of the following plasmids: pcDNA3, pcDNA3-Luc, pcDNA3-SF-1, or pcDNA3-TReP-132, each containing the neomycin resistance gene. The transfections were carried out in triplicate with ExGen 500 (MBI Fermentas, Flamborough, Ontario, Canada) at a ratio of 5 μl of ExGen 500 per 1 μg of plasmid. After 12 hours of transfection, the medium was changed and the cells were incubated for an additional 8 hours. The cells were then trypsinized and transferred to a 100 mm petri dish. After 48 hours, the medium was supplemented with 400 μg/ml of the selection agent G418 (Sigma-Aldrich CA Ltd.). Distinct colonies could be detected after two weeks of selection with G418. The cells were then rinsed with PBS and fixed with a mixture of 10% acetic acid/10% methanol for 15 min, then colored with crystal violet (Sigma-Aldrich CA Ltd.).
The cell proliferation rate was determined by the cellular DNA content using the fluorochorome DABA ([…]). […] Fluorescence was measured on a Perkin-Elmer LS-2B Filter Fluorimeter at an excitation wavelength of 400 nm and an emission wavelength of 508 nm. The DNA content was calculated from a standard curve of known quantities of salmon sperm DNA.

B1: TReP-132: Transcriptional Regulating Protein of 132 kDa, polypeptide comprising SEQ ID NO: 2; here expressed in cells from vectors (protein)
chain: MGDQQLYKTNHVAHGSENLFYQQPPLGVHSGLNHNYGNAVTGGGMDAPQASPISPHFPQDTRDGLGLPVGSKNLGQMDTSRQGGWGSHAGPGNHVQLRGNLANSNMMWGAPAQAEPTDGYQYTYSQASEIRTQKLTSGVLHKLDSFTQVFANQNLRIQVNNMAQVLHTQSAVMDGAPDSALRQLLSQKPMEPPAPAIPSRYQQVPQQPHPGFTGGLSKPALQVGQHPTQGHLYYDYQQPLAQVPVQGGQPLQAPQMLSQHMQQMQQHQYYPPQQQQQAGQQRISMQEIQTQPQQIRPSQPQPPPQQQQPQQLQLQQRQGSMQIPQYYQPQPMMQHLQEQQQQQMHLQPPSYHRDPHQYTPEQAHTVQLIPLGSMSQYYYQEPQQPYSHPLYQQSHLSQHQQREDSQLKTYSSDRQAQAMLSSHGDLGPPDTGMGDPASSDLTRVSSTLPHRPLLSPSGIHLNNMGPQHQQLSPSAMWPQMHLPDGRAQPGSPESSGQPKGAFGEQFDAKNKLTCSICLKEFKNLPALNGHMRSHGGMRASPNLKQEEGEKVLPPQPQPPLPPPPPPPPPPQLPPEAESLTPMVMPVSVPVKLLPPKPSSQGFTNSTVAAPSARDKPASSMSDDEMPVLEIPRKHQPSVPKAEEPLKTVQEKKKFRHRPEPLFIPPPPSYNPNPAASYSGATLYQSQLRSPRVLGDHLLLDPTHELPPYTPPPMLSPVRQGSGLFSNVLISGHGPGAHPQLPLTPLTPTPRVLLCRSNSIDGSNVTVTPGPGEQTVDVEPRINIGLRFQAEIPELQDISALAQDTHKATLVWKPWPELENHDLQQRVENLLNLCCSSALPGGGTNSEFALHSLFEAKGDVMVALEMLLLRKPVRLKCHPLANYHYAGSDKWTSLERKLFNKALATYSKDFIFVQKMVKSKTVAQCVEYYYTWKKIMRLGRKHRTRLAEIIDDCVTSEEEEELEEEEEEDPEEDRKSTKEEESEVPKSPEPPPVPVLAPTEGPPLQALGQPSGSFICEMPNCGAVFSSRQALNGHARIHGGTNQVTKARGAIPSGKQKPGGTQSGYCSVKSSPSHSTTSGETDPTTIFPCKECGKVFFKIKSRNAHMKTHRQQEEQQRQKAQKAAFAAEMAATIERTTGPVGAPGLLPLDQLSLIKPIKDVDILDDDVVQQLGGVMEEAEVVDTDLLLDDQDSVLLQGDAEL
B1 was tested. Which doubling time did it give?
Its doubling time is 30 h.
